Data reported in publication PMC11095200.

Biological target: StAR (UniProt P51557)
Test: co-immunoprecipitation and western blot
Conditions: reference: wild-type 14-3-3γ; sites S71

binding against the reference: weaker
Substance: 14-3-3γ (from UniProt P61982) S71A 14-3-3γ
